# Where a SMILES comes first, the peptide text is derived from it.
# T1: AtGTR1 (Arabidopsis thaliana, UniProt Q944G5)
# T1 construct: A library of Arabidopsis transporters available as full length cDNAs from the RIKEN bioresource center; expressed in transfected cells; host or cells: Xenopus oocytes injected with in vitro transcribed cRNA
# T1 sequence (Q944G5 31-636 limits assumed): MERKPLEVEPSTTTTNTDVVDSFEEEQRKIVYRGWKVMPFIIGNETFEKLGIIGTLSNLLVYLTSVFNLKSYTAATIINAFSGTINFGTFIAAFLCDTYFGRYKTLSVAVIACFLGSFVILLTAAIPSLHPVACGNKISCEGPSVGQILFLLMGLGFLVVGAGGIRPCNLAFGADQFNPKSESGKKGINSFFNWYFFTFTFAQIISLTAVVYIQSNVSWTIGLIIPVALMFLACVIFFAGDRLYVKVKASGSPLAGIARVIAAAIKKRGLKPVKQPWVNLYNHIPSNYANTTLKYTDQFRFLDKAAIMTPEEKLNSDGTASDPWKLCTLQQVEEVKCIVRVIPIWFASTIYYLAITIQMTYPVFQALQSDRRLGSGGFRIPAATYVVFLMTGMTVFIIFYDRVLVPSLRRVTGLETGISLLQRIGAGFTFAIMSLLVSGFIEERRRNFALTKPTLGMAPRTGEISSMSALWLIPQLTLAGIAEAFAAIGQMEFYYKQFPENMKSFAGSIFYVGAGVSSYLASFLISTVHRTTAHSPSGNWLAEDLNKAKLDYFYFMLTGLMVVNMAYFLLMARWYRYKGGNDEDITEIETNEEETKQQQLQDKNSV
# B1: GTR1 S22A: GTR1 of SEQ ID NO: 2 with S at position 22 for A, mimicking dephosphorylation (protein, listed as Arabidopsis thaliana)
# chain: MERKPLEVEPSTTTTNTDVVDAFEEEQRKIVYRGWKVMPFIIGNETFEKLGIIGTLSNLLVYLTSVFNLKSYTAATIINAFSGTINFGTFIAAFLCDTYFGRYKTLSVAVIACFLGSFVILLTAAIPSLHPVACGNKISCEGPSVGQILFLLMGLGFLVVGAGGIRPCNLAFGADQFNPKSESGKKGINSFFNWYFFTFTFAQIISLTAVVYIQSNVSWTIGLIIPVALMFLACVIFFAGDRLYVKVKASGSPLAGIARVIAAAIKKRGLKPVKQPWVNLYNHIPSNYANTTLKYTDQFRFLDKAAIMTPEEKLNSDGTASDPWKLCTLQQVEEVKCIVRVIPIWFASTIYYLAITIQMTYPVFQALQSDRRLGSGGFRIPAATYVVFLMTGMTVFIIFYDRVLVPSLRRVTGLETGISLLQRIGAGFTFAIMSLLVSGFIEERRRNFALTKPTLGMAPRTGEISSMSALWLIPQLTLAGIAEAFAAIGQMEFYYKQFPENMKSFAGSIFYVGAGVSSYLASFLISTVHRTTAHSPSGNWLAEDLNKAKLDYFYFMLTGLMVVNMAYFLLMARWYRYKGGNDEDITEIETNEEETKQQQLQDKNSV
# B2: GTR1 S22D: GTR1 of SEQ ID NO: 2 with S at position 22 for D, mimicking phosphorylation (protein, listed as Arabidopsis thaliana)
# chain: MERKPLEVEPSTTTTNTDVVDDFEEEQRKIVYRGWKVMPFIIGNETFEKLGIIGTLSNLLVYLTSVFNLKSYTAATIINAFSGTINFGTFIAAFLCDTYFGRYKTLSVAVIACFLGSFVILLTAAIPSLHPVACGNKISCEGPSVGQILFLLMGLGFLVVGAGGIRPCNLAFGADQFNPKSESGKKGINSFFNWYFFTFTFAQIISLTAVVYIQSNVSWTIGLIIPVALMFLACVIFFAGDRLYVKVKASGSPLAGIARVIAAAIKKRGLKPVKQPWVNLYNHIPSNYANTTLKYTDQFRFLDKAAIMTPEEKLNSDGTASDPWKLCTLQQVEEVKCIVRVIPIWFASTIYYLAITIQMTYPVFQALQSDRRLGSGGFRIPAATYVVFLMTGMTVFIIFYDRVLVPSLRRVTGLETGISLLQRIGAGFTFAIMSLLVSGFIEERRRNFALTKPTLGMAPRTGEISSMSALWLIPQLTLAGIAEAFAAIGQMEFYYKQFPENMKSFAGSIFYVGAGVSSYLASFLISTVHRTTAHSPSGNWLAEDLNKAKLDYFYFMLTGLMVVNMAYFLLMARWYRYKGGNDEDITEIETNEEETKQQQLQDKNSV
# B3: GTR1 T105A: GTR1 of SEQ ID NO: 2 with T at position 105 for A (protein, listed as Arabidopsis thaliana)
# chain: MERKPLEVEPSTTTTNTDVVDSFEEEQRKIVYRGWKVMPFIIGNETFEKLGIIGTLSNLLVYLTSVFNLKSYTAATIINAFSGTINFGTFIAAFLCDTYFGRYKALSVAVIACFLGSFVILLTAAIPSLHPVACGNKISCEGPSVGQILFLLMGLGFLVVGAGGIRPCNLAFGADQFNPKSESGKKGINSFFNWYFFTFTFAQIISLTAVVYIQSNVSWTIGLIIPVALMFLACVIFFAGDRLYVKVKASGSPLAGIARVIAAAIKKRGLKPVKQPWVNLYNHIPSNYANTTLKYTDQFRFLDKAAIMTPEEKLNSDGTASDPWKLCTLQQVEEVKCIVRVIPIWFASTIYYLAITIQMTYPVFQALQSDRRLGSGGFRIPAATYVVFLMTGMTVFIIFYDRVLVPSLRRVTGLETGISLLQRIGAGFTFAIMSLLVSGFIEERRRNFALTKPTLGMAPRTGEISSMSALWLIPQLTLAGIAEAFAAIGQMEFYYKQFPENMKSFAGSIFYVGAGVSSYLASFLISTVHRTTAHSPSGNWLAEDLNKAKLDYFYFMLTGLMVVNMAYFLLMARWYRYKGGNDEDITEIETNEEETKQQQLQDKNSV
# B4: GTR1 T105D: GTR1 of SEQ ID NO: 2 with T at position 105 for D (protein, listed as Arabidopsis thaliana)
# chain: MERKPLEVEPSTTTTNTDVVDSFEEEQRKIVYRGWKVMPFIIGNETFEKLGIIGTLSNLLVYLTSVFNLKSYTAATIINAFSGTINFGTFIAAFLCDTYFGRYKDLSVAVIACFLGSFVILLTAAIPSLHPVACGNKISCEGPSVGQILFLLMGLGFLVVGAGGIRPCNLAFGADQFNPKSESGKKGINSFFNWYFFTFTFAQIISLTAVVYIQSNVSWTIGLIIPVALMFLACVIFFAGDRLYVKVKASGSPLAGIARVIAAAIKKRGLKPVKQPWVNLYNHIPSNYANTTLKYTDQFRFLDKAAIMTPEEKLNSDGTASDPWKLCTLQQVEEVKCIVRVIPIWFASTIYYLAITIQMTYPVFQALQSDRRLGSGGFRIPAATYVVFLMTGMTVFIIFYDRVLVPSLRRVTGLETGISLLQRIGAGFTFAIMSLLVSGFIEERRRNFALTKPTLGMAPRTGEISSMSALWLIPQLTLAGIAEAFAAIGQMEFYYKQFPENMKSFAGSIFYVGAGVSSYLASFLISTVHRTTAHSPSGNWLAEDLNKAKLDYFYFMLTGLMVVNMAYFLLMARWYRYKGGNDEDITEIETNEEETKQQQLQDKNSV
# B5: GTR2 T58A: GTR2 of SEQ ID No: 4 with T at position 58 for A (protein, listed as Arabidopsis thaliana)
# chain: MERKPLELESTDNHQNPSSAVYGGSVTAVDSVEEDVQNQKKVVYRGWKVMPFIIGNEAFEKLGIIGTLSNLLVYLTAVFNLKSITAATIINAFSGTINFGTFVAAFLCDTYFGRYKTLSVAVIACFLGSFVILLTAAVPQLHPAACGTAADSICNGPSGGQIAFLLMGLGFLVVGAGGIRPCNLAFGADQFNPKSESGKRGIDSFFNWYFFTFTFAQILSLTLVVYVQSNVSWTIGLTIPAVLMFLACLIFFAGDKLYVKIKASGSPLAGIAQVIAVAIKKRGLKPAKQPWLNLYNYYPPKYANSKLKYTDQFRFLDKAAILTPEDKLQPDGKPADPWKLCTMQQVEEVKCIVRVLPIWFASSIYYLTITQQMTYPVFQALQSDRRLGSGGFVIPAATYVVFLMTGMTVFIVVYDRVLVPTMRRITGLDTGITLLQRIGTGIFFATASLVVAGFVEERRRTFALTKPTLGMAPRKGEISSMSAMWLIPQLSLAGVAEAFAAIGQMEFYYKQFPENMRSFAGSIFYVGGGVSSYLGSFLIATVHRTTQNSSGGNWLAEDLNKGRLDLFYFMIAGILAVNFAYFLVMSRWYRYKGSDDEVTTYETNENIIKQQDKNVA
# B6: GTR2 T117A: GTR2 of SEQ ID No: 4 with T at position 117 for A (protein, listed as Arabidopsis thaliana)
# chain: MERKPLELESTDNHQNPSSAVYGGSVTAVDSVEEDVQNQKKVVYRGWKVMPFIIGNETFEKLGIIGTLSNLLVYLTAVFNLKSITAATIINAFSGTINFGTFVAAFLCDTYFGRYKALSVAVIACFLGSFVILLTAAVPQLHPAACGTAADSICNGPSGGQIAFLLMGLGFLVVGAGGIRPCNLAFGADQFNPKSESGKRGIDSFFNWYFFTFTFAQILSLTLVVYVQSNVSWTIGLTIPAVLMFLACLIFFAGDKLYVKIKASGSPLAGIAQVIAVAIKKRGLKPAKQPWLNLYNYYPPKYANSKLKYTDQFRFLDKAAILTPEDKLQPDGKPADPWKLCTMQQVEEVKCIVRVLPIWFASSIYYLTITQQMTYPVFQALQSDRRLGSGGFVIPAATYVVFLMTGMTVFIVVYDRVLVPTMRRITGLDTGITLLQRIGTGIFFATASLVVAGFVEERRRTFALTKPTLGMAPRKGEISSMSAMWLIPQLSLAGVAEAFAAIGQMEFYYKQFPENMRSFAGSIFYVGGGVSSYLGSFLIATVHRTTQNSSGGNWLAEDLNKGRLDLFYFMIAGILAVNFAYFLVMSRWYRYKGSDDEVTTYETNENIIKQQDKNVA
# B7: GTR2 T58D: GTR2 of SEQ ID No: 4 with T at position 58 for D (protein, listed as Arabidopsis thaliana)
# chain: MERKPLELESTDNHQNPSSAVYGGSVTAVDSVEEDVQNQKKVVYRGWKVMPFIIGNEDFEKLGIIGTLSNLLVYLTAVFNLKSITAATIINAFSGTINFGTFVAAFLCDTYFGRYKTLSVAVIACFLGSFVILLTAAVPQLHPAACGTAADSICNGPSGGQIAFLLMGLGFLVVGAGGIRPCNLAFGADQFNPKSESGKRGIDSFFNWYFFTFTFAQILSLTLVVYVQSNVSWTIGLTIPAVLMFLACLIFFAGDKLYVKIKASGSPLAGIAQVIAVAIKKRGLKPAKQPWLNLYNYYPPKYANSKLKYTDQFRFLDKAAILTPEDKLQPDGKPADPWKLCTMQQVEEVKCIVRVLPIWFASSIYYLTITQQMTYPVFQALQSDRRLGSGGFVIPAATYVVFLMTGMTVFIVVYDRVLVPTMRRITGLDTGITLLQRIGTGIFFATASLVVAGFVEERRRTFALTKPTLGMAPRKGEISSMSAMWLIPQLSLAGVAEAFAAIGQMEFYYKQFPENMRSFAGSIFYVGGGVSSYLGSFLIATVHRTTQNSSGGNWLAEDLNKGRLDLFYFMIAGILAVNFAYFLVMSRWYRYKGSDDEVTTYETNENIIKQQDKNVA
# Test system: Xenopus oocytes
# Assay: 4-MTB import by phosphorylation/dephosphorylation mimicking GTR1 and GTR2 constructs in oocytes (LC-MS)
# Format: cell-based
# Details: 100 μM 4-MTB, Kulori pH 5, one hour
row,Molecule,4-MTB transport activity
1,B1,turns of f transport completely
2,B2,keeps the import intact
3,B3,block the transport activity
4,B4,block the transport activity
5,B5,keeps the transport activity intact
6,B6,block the transport activity
7,B7,inactivates the transport

# Target: T1, AtGTR1
# Assay: Substrate-induced currents in voltage-clamped Xenopus oocytes expressing AtGTR1
# Format: cell-based
# Details: 133 μM, pH 5, AtGTR1
row,Molecule,currents on perfusion
1,C[C@H](N)C(=O)N[C@@H](Cc1cnc[nH]1)C(=O)O [ala-his] (H-Ala-His-OH),did not result in any detectable currents
2,CC(NC(=O)C(N)CC(=O)O)C(=O)O (stereo not drawn) [asp-ala],did not result in any detectable currents
3,NCC(=O)NCC(=O)NCC(=O)O [gly-gly-gly] (H-Gly-Gly-Gly-OH),did not result in any detectable currents
4,CC(C)C[C@H](NC(=O)CN)C(=O)O [gly-leu],did not result in any detectable currents
5,CSCC[C@H](N)C(=O)N[C@@H](C)C(=O)N[C@@H](CO)C(=O)O [met-ala-ser] (H-Met-Ala-Ser-OH),did not result in any detectable currents

# Reference: patent publication US20140137294A1, “GLUCOSINOLATE TRANSPORTER PROTEIN AND USES THEREOF” (UNIVERSITY OF COPENHAGEN, priority 2010, published 2014)
